Drawing on publication PMC5814911 (Nucleic Acids Research, 2017), this text covers Kd, binding and stoichiometry N for 4 compounds.

One series has as its target T1, PobR (Streptomyces coelicolor, UniProt Q9Z4X2).
T1 sequence (Q9Z4X2 1-524): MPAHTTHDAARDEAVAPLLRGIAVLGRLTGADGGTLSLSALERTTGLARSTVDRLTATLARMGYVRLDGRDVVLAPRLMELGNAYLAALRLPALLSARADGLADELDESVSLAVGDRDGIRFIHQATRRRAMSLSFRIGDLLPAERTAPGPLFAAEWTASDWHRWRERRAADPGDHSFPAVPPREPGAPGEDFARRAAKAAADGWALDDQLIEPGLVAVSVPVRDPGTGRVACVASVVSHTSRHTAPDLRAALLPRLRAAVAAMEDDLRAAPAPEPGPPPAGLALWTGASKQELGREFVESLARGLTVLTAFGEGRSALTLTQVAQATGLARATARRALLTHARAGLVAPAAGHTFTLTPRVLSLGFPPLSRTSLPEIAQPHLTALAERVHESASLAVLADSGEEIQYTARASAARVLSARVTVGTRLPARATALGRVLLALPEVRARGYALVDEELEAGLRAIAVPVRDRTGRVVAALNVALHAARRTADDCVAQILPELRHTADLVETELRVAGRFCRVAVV
As to the kind of experiment: ITC and crystal structure at […] Å. It is filed as binding.

Series [1] deals with T2, PobR (PobRFL) (Streptomyces coelicolor (cosmid StE8; M600 is the wild-type strain used)) (UniProt Q9Z4X2).
T2 sequence: T1 sequence (Q9Z4X2 1-524)
The series can be described thus: DNase I footprinting.

The target in series [2] is T2, PobR (PobRFL) (Streptomyces coelicolor (cosmid StE8; M600 is the wild-type strain used)). The series can be described thus: EMSA.
The target of series [3] is PobR (product of SCO3209), full length, Streptomyces coelicolor (Streptomyces coelicolor). As to the kind of experiment: SAXS.
Series [4] shares this target. As to the kind of experiment: SEC.

Consider `O=C(O)c1ccc(O)cc1` [PHB, para-hydroxybenzoate], for which the Kd on PobR came to 5.8 ± 0.5 µM. In the case of “GCATCGGTCGTTCCCTTCGATCGGCGTCGTTGCCTTGCTCGAGCCGGCAGTTGTTCGCGTCGCGTTGTCGCGTTGTCGCCTGTTCGCGTGGTGAAAATTTCTTCACCATCAACTGCGC (double strand) [118-bp pobA promoter probe, 5'-32P]”, the binding result in series [1] is listed as “binds”. For the compound “GCATCGGTCGTTCCCTTCGATCGGCGTCGTTGCCTTGCTCGAGCCGGCAGTTGTTCGCGTCGCGTTGTCGCGTTGTCGCCTGTTCGCGTGGTGAAAATTTCTTCACCATCAACTGCGC (double strand) [118-bp pobA promoter probe]”, in series [2], the binding result is “binds”.

For “PobR (product of SCO3209), full length, Streptomyces coelicolor (natural protein)”, the stoichiometry N in series [3] and in series [4] was 2 throughout.
